The results in this text go back to patent US20040133357A1 (ABMAXIS, published 2004).

B1: hAB3 (scFv)
scFv: EVQLVQSGGGVVQPGGSLRLSCAASGYTFTNYGMNWIRQAPGKGLEWVGWINTYTGEPTYAADFKRRVTFSLDTSKSTAYLQLNSLRAEDTAVYYCAKYPHYYGSSHWYFDVWGQGTLVTVSSGGGGSGGGGSGGGGSDIQMTQSPSSLSASVGDRVTITCSASQDISNYLNWYQQKPGKAPKVLIYFTSSLHSGVPSRFSGSGSGTDFTLTISSLQPEDFATYYCQQYSTVPWTFGQGTKVEIK
notes: Single chain format; not shown: HA-His6 tag at C-terminus
B2: hAB4 (scFv)
scFv: B1 scFv with E1Q, S21T, I37V, V68F, F70I, T78Q, L83M
notes: as for B1
B3: hAB5 (scFv)
scFv: B1 scFv with S17T, S21T, I37V, L83M
notes: as for B1
B4: hAB9 (scFv)
scFv: B1 scFv with I37V, V68F, L83M, H101Y, S105R, M142L, V153A, T160S, K183Q, V184L
notes: as for B1
B5: hAB12 (scFv)
scFv: B1 scFv with Q6E, V11L, I37V, V68F, L83M, H101Y, S105R
notes: as for B1
B6: hAB11 (scFv)
scFv: B1 scFv with Q6E, V11L, I37V, V68F, L83M, S105R
notes: as for B1
B7: hAB10 (scFv)
scFv: B1 scFv with Q6E, V11L, I37V, V68F, L83M, H101Y, S105T
notes: as for B1
B8: hAB35 (scFv)
scFv: EVQLVQSGGGVVQPGGSLRLSCAASGYDFTHFGLNWIRQAPGKGPEWVGWINTYTGEPTYAQDFKRRVTFSLDTSKSTAYLQLNSLRAEDTAVYYCAKYPYYYGRSHWYFDVWGQGTLVTVSSGGGGSGGGGSGGGGSDIVMTQSPSTLSASPGERATITCNASQSIGSYLAWYQQKPGQAPKVLIYGASNLASGVPSRFSGSRSGTDFTLTISSLQPEDFAVYYCQQYNSTPWTFGGGTKLEIK
notes: as for B1
B9: hAB16 (scFv)
scFv: B8 scFv with D28T, H31N, F32Y, L34M, P45L, Q62A
notes: as for B1
B10: hAB37 (scFv)
scFv: B8 scFv with D28N, T30S, I37L, P45L, T55N, P58T, Q62P
notes: as for B1
B11: hAB36 (scFv)
scFv: B8 scFv with F29L, T30S, F32Y, Q62P, K65T
notes: as for B1
B12: hAB38 (scFv)
scFv: B8 scFv with D28N, T30S, I37L, Q62P, D63E
notes: as for B1
B13: hAB39 (scFv)
scFv: B8 scFv with I37V, P45L, I51V, P58T, Q62H, D63E
notes: as for B1
B14: hAB14 (scFv)
scFv: EVQLVQSGGGVVQPGGSLRLSCAASGYTFTNYGMNWIRQAPGKGLEWVGWINTYTGEPTYAADFKRRVTFSLDTSKSTAYLQLNSLRAEDTAVYYCAKYPYYYGRSHWYFDVWGQGTLVTVSSGGGGSGGGGSGGGGSAIRMTQSPSSVSASVGDTVTIACRASQAIRNDLTWYQQKPGTAPKLLIYGATTLQSGVPSRFSGSGSGTDFTLTISSLQPEDFATYYCQQSSTTPWTFGQGTKVDIK
notes: as for B1
B15: hAB8 (scFv)
scFv: B1 scFv with H101Y, S105R
notes: as for B1
B16: hAB7 (scFv)
scFv: B1 scFv with I37V, V68F, L83M, H101Y, S105R
notes: as for B1
B17: hAB15 (scFv)
scFv: EVQLVQSGGGVVQPGGSLRLSCAASGYTFTNYGMNWIRQAPGKGLEWVGWINTYTGEPTYAADFKRRVTFSLDTSKSTAYLQLNSLRAEDTAVYYCAKYPYYYGRSHWYFDVWGQGTLVTVSSGGGGSGGGGSGGGGSDIVMTQSPSTLSASPGERATITCHASQSISTYLAWYQQKPGQAPRVLIYGASNLASGVPNRFSGSGSGTDFTLTISSLQPEDFAVYYCQQYNSAPWTFGGGTKVEIK
notes: as for B1

Residue numbers refer to the chain shown, from its start.

For the first assay, the target named is T1, purified recombinant human VEGF165 (human, UniProt P15692 27-191, glycosylated).
T1 construct: mature; Bought from Calbiochem; also called VEGF protein (Calbiochem); homodimeric VEGF protein
T1 sequence (P15692 other isoform, or with tags, fused parts or gaps limits assumed): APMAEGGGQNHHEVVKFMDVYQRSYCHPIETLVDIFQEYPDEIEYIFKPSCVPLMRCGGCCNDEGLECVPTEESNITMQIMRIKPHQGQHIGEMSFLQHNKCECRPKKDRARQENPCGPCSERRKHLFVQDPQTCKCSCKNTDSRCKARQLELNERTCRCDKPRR
The assay can be described thus: SPR (BIAcore), purified scFv over VEGF immobilized on CM5 chip, 25 C. Here is the method:
(§1) Antibody fragments in the format of single chain were expressed as described below and purified. The measurement was done by measuring the change of SPR units (y-axis) vs time (x-axis) when a purified antibody binds its antigen (VEGF) immobilized on the CM5 biochip at 25° C. Kd values were calculated by the […].
(§2) BIAcore Biosensor Assay was used to determine antibody affinity. VEGF protein (purchased from Calbiochem) was coupled to a CM-5 biosensor ship by amine coupling. After immobilization, CM-5 chips with 200 to 1000 response unites of VEGF were kept at 4° C. before use. All experiments were performed at 25° C. or 35° C. Each sample in PBS buffer was injected over VEGF surface at a flow rate of 20 ul/min using Biacore 1000 (Biacore AB, Sweden), and bound antibodies were removed from chip by 10 ul of glycine-HCl, PH 1.5 at the end of each cycle. Each sensorgram was recorded and normalized to a PBS base line.
Usually Kd stands for the constant that tells how readily two partners part at equilibrium. Usually koff stands for a measure of how fast the partners let go of each other. For orientation: kon means the rate constant with which the complex forms. Consider B1, for which the Kd is 3.1 nM, the “hAB1 Kd/Variant Kd” value turned out to be 4.2, the koff was determined as 0.000115 s⁻¹ and the kon amounted to 37400 M⁻¹ s⁻¹.

As for B2, the Kd was determined as 26 nM, the “hAB1 Kd/Variant Kd” value amounted to 0.5, the koff was 0.000104 s⁻¹ and the kon was found to be 4000 M⁻¹ s⁻¹.

Regarding B3, the Kd turned out to be 5.9 nM, the “hAB1 Kd/Variant Kd” value stood at 2.2, the koff came out at 7.2e-05 s⁻¹ and the kon was found to be 12200 M⁻¹ s⁻¹.

B4: the Kd was found to be 4.9 nM, the “hAB1 Kd/Variant Kd” value stood at 2.7, the koff worked out at 1.4e-05 s⁻¹ and the kon came out at 2900 M⁻¹ s⁻¹.

On to B5, for which the Kd amounted to 1.5 nM, the “hAB1 Kd/Variant Kd” value amounted to 9.2, the koff is 3e-06 s⁻¹ and the kon came to 2300 M⁻¹ s⁻¹.

Regarding B6, the dissociation constant (Kd) was determined as 5.4 nM, the “hAB1 Kd/Variant Kd” value stood at 2.6, the koff was determined as 8.7e-05 s⁻¹ and the kon was found to be 15900 M⁻¹ s⁻¹.

Consider B7, for which the Kd came out at 2.2 nM, the “hAB1 Kd/Variant Kd” value came to 6.3, the koff came out at 3e-06 s⁻¹ and the kon came out at 1100 M⁻¹ s⁻¹.

For a further assay, the target named is T1, purified recombinant human VEGF165. The assay is described as follows: SPR (BIAcore), scFv over VEGF immobilized on CM5 chip; reference hAB1. As to the method: as §1, §2
(In general: In SPR one partner is held on a chip, and binding of the other changes the refractive index at the surface.)
As to B1, the “fold higher binding affinity than hAB1” value stood at 4 fold.

Consider B2, for which the “fold higher binding affinity than hAB1” value was determined as 2 fold.

The target is the same in a further assay. The assay can be described thus: SPR (BIAcore), purified scFv over VEGF immobilized on CM5 chip, 35 C. As to the method: Antibody fragments in the format of single chain were expressed as described below and purified. The measurement was done by measuring the change of SPR units (y-axis) vs time (x-axis) when a purified antibody binds its antigen (VEGF) immobilized on the CM5 biochip at 35° C. Kd values were calculated by the […].
as §2
Consider B8, for which the Kd came to 0.7 nM, the “hAB1 Kd/Variant Kd” value turned out to be 59.1, the koff was found to be 6.2e-05 s⁻¹ and the kon amounted to 82800 M⁻¹ s⁻¹.

Consider B9, for which the Kd came out at 1.6 nM, the “hAB1 Kd/Variant Kd” value turned out to be 25.9, the koff is 4.7e-05 s⁻¹ and the kon was 29300 M⁻¹ s⁻¹.

In the case of B10, the Kd was 0.8 nM, the “hAB1 Kd/Variant Kd” value is 51.8, the koff worked out at 4.4e-05 s⁻¹ and the kon was 57300 M⁻¹ s⁻¹.

Turning to B11, the Kd was 0.7 nM, the “hAB1 Kd/Variant Kd” value was 59.1, the koff was determined as 3.7e-05 s⁻¹ and the kon was 47500 M⁻¹ s⁻¹.

Consider B12, for which the Kd came to 0.9 nM, the “hAB1 Kd/Variant Kd” value stood at 46, the koff worked out at 4.8e-05 s⁻¹ and the kon amounted to 50000 M⁻¹ s⁻¹.

With B13, the Kd is 1.8 nM, the “hAB1 Kd/Variant Kd” value is 23, the koff was 4.8e-05 s⁻¹ and the kon worked out at 28400 M⁻¹ s⁻¹.

Turning to B14, the Kd worked out at 3.6 nM, the “hAB1 Kd/Variant Kd” value was found to be 11.5, the koff is 6.2e-05 s⁻¹ and the kon is 17100 M⁻¹ s⁻¹.

In the case of B15, the Kd was determined as 1.1 nM, the “hAB1 Kd/Variant Kd” value was determined as 37.6, the koff came to 1.7e-05 s⁻¹ and the kon came to 15800 M⁻¹ s⁻¹.

Consider B16, for which the Kd is 1.1 nM, the “hAB1 Kd/Variant Kd” value stood at 37.6, the koff came to 9e-06 s⁻¹ and the kon is 8500 M⁻¹ s⁻¹.

For the molecule B17, the Kd stood at 3.7 nM, the “hAB1 Kd/Variant Kd” value worked out at 11.2, the koff came to 8.6e-05 s⁻¹ and the kon was found to be 23400 M⁻¹ s⁻¹.

For another assay the target is unchanged. The assay can be described thus: SPR (BIAcore), scFv over VEGF immobilized on CM5 chip, 25 C; reference hAB1. As to the method: as §2
In the case of B1, the “fold higher binding affinity than the parental/reference antibody (hAB1)” value was about 4 fold.
